Numbered stars: 1 amine (or outer) side, 2 acyl side, 3 side chain; on linkers, the order of the positions; unused ones are H or OH. Square brackets hold non-standard residues; d marks the D form. * marks the point of attachment. hPhe(2,4-di-NO2) = 2,4-di-NO2 homophenylalanine, O=C([C@H](CCc1ccc([N+](=O)[O-])cc1[N+](=O)[O-])N[*:1])[*:2]; Phe(4-NHAc) = 4-acetamidophenylalanine, CC(=O)Nc1ccc(C[C@H](N[*:1])C(=O)[*:2])cc1; Phe(4-CH2SO3H) = N[C@@H](Cc1ccc(CS(=O)(=O)O)cc1)C(=O)O; Phe(4-NO2) = N[C@@H](Cc1ccc([N+](=O)[O-])cc1)C(=O)O; Phe(4-CH2NH2) = NCc1ccc(C[C@H](N)C(=O)O)cc1; Tyr(3-Cl) = N[C@@H](Cc1ccc(O)c(Cl)c1)C(=O)O; Dmt = Cc1cc(O)cc(C)c1C[C@H](N)C(=O)O; Dab = NCC[C@H](N)C(=O)O; Dap = NC[C@H](N)C(=O)O; Hexanoyl = CCCCCC(=O)*; Propionyl = CCC(=O)*
B1: IV-21-C Propionyl-AYYRWR-NH2 (peptide)
peptide: Propionyl-AYYRWR-NH2
SMILES: CCC(=O)N[C@@H](C)C(=O)N[C@@H](Cc1ccc(O)cc1)C(=O)N[C@@H](Cc1ccc(O)cc1)C(=O)N[C@@H](CCCNC(=N)N)C(=O)N[C@@H](Cc1c[nH]c2ccccc12)C(=O)N[C@@H](CCCNC(=N)N)C(N)=O
B2: IV-39-B Hexanoyl-RYYAWR-NH2 (peptide)
peptide: Hexanoyl-RYYAWR-NH2
SMILES: CCCCCC(=O)N[C@@H](CCCNC(=N)N)C(=O)N[C@@H](Cc1ccc(O)cc1)C(=O)N[C@@H](Cc1ccc(O)cc1)C(=O)N[C@@H](C)C(=O)N[C@@H](Cc1c[nH]c2ccccc12)C(=O)N[C@@H](CCCNC(=N)N)C(N)=O
B3: IV-23-B Propionyl-RAYRWR-NH2 (peptide)
peptide: Propionyl-RAYRWR-NH2
SMILES: CCC(=O)N[C@@H](CCCNC(=N)N)C(=O)N[C@@H](C)C(=O)N[C@@H](Cc1ccc(O)cc1)C(=O)N[C@@H](CCCNC(=N)N)C(=O)N[C@@H](Cc1c[nH]c2ccccc12)C(=O)N[C@@H](CCCNC(=N)N)C(N)=O
B4: IV-25-B Propionyl-RYARWR-NH2 (peptide)
peptide: Propionyl-RYARWR-NH2
SMILES: CCC(=O)N[C@@H](CCCNC(=N)N)C(=O)N[C@@H](Cc1ccc(O)cc1)C(=O)N[C@@H](C)C(=O)N[C@@H](CCCNC(=N)N)C(=O)N[C@@H](Cc1c[nH]c2ccccc12)C(=O)N[C@@H](CCCNC(=N)N)C(N)=O
B5: IV-29-B Propionyl-RYYRAR-NH2 (peptide)
peptide: Propionyl-RYYRAR-NH2
SMILES: CCC(=O)N[C@@H](CCCNC(=N)N)C(=O)N[C@@H](Cc1ccc(O)cc1)C(=O)N[C@@H](Cc1ccc(O)cc1)C(=O)N[C@@H](CCCNC(=N)N)C(=O)N[C@@H](C)C(=O)N[C@@H](CCCNC(=N)N)C(N)=O
B6: IV-31-B Propionyl-RYYRWA-NH2 (peptide)
peptide: Propionyl-RYYRWA-NH2
SMILES: CCC(=O)N[C@@H](CCCNC(=N)N)C(=O)N[C@@H](Cc1ccc(O)cc1)C(=O)N[C@@H](Cc1ccc(O)cc1)C(=O)N[C@@H](CCCNC(=N)N)C(=O)N[C@@H](Cc1c[nH]c2ccccc12)C(=O)N[C@@H](C)C(N)=O
B7: IV-27-B Propionyl-RYYAWR-NH2 (peptide)
peptide: Propionyl-RYYAWR-NH2
SMILES: CCC(=O)N[C@@H](CCCNC(=N)N)C(=O)N[C@@H](Cc1ccc(O)cc1)C(=O)N[C@@H](Cc1ccc(O)cc1)C(=O)N[C@@H](C)C(=O)N[C@@H](Cc1c[nH]c2ccccc12)C(=O)N[C@@H](CCCNC(=N)N)C(N)=O
B8: IV-37-B Hexanoyl-RYARWR-NH2 (peptide)
peptide: Hexanoyl-RYARWR-NH2
SMILES: CCCCCC(=O)N[C@@H](CCCNC(=N)N)C(=O)N[C@@H](Cc1ccc(O)cc1)C(=O)N[C@@H](C)C(=O)N[C@@H](CCCNC(=N)N)C(=O)N[C@@H](Cc1c[nH]c2ccccc12)C(=O)N[C@@H](CCCNC(=N)N)C(N)=O
B9: IV-41-B Hexanoyl-RYYRAR-NH2 (peptide)
peptide: Hexanoyl-RYYRAR-NH2
SMILES: CCCCCC(=O)N[C@@H](CCCNC(=N)N)C(=O)N[C@@H](Cc1ccc(O)cc1)C(=O)N[C@@H](Cc1ccc(O)cc1)C(=O)N[C@@H](CCCNC(=N)N)C(=O)N[C@@H](C)C(=O)N[C@@H](CCCNC(=N)N)C(N)=O
B10: IV-43-B Hexanoyl-RYYRWA-NH2 (peptide)
peptide: Hexanoyl-RYYRWA-NH2
SMILES: CCCCCC(=O)N[C@@H](CCCNC(=N)N)C(=O)N[C@@H](Cc1ccc(O)cc1)C(=O)N[C@@H](Cc1ccc(O)cc1)C(=O)N[C@@H](CCCNC(=N)N)C(=O)N[C@@H](Cc1c[nH]c2ccccc12)C(=O)N[C@@H](C)C(N)=O
B11: IV-35-B Hexanoyl-RAYRWR-NH2 (peptide)
peptide: Hexanoyl-RAYRWR-NH2
SMILES: CCCCCC(=O)N[C@@H](CCCNC(=N)N)C(=O)N[C@@H](C)C(=O)N[C@@H](Cc1ccc(O)cc1)C(=O)N[C@@H](CCCNC(=N)N)C(=O)N[C@@H](Cc1c[nH]c2ccccc12)C(=O)N[C@@H](CCCNC(=N)N)C(N)=O
B12: IV-33-B Hexanoyl-AYYRWR-NH2 (peptide)
peptide: Hexanoyl-AYYRWR-NH2
SMILES: CCCCCC(=O)N[C@@H](C)C(=O)N[C@@H](Cc1ccc(O)cc1)C(=O)N[C@@H](Cc1ccc(O)cc1)C(=O)N[C@@H](CCCNC(=N)N)C(=O)N[C@@H](Cc1c[nH]c2ccccc12)C(=O)N[C@@H](CCCNC(=N)N)C(N)=O
B13: VII-63-B (peptide)
peptide: Ac-RY[Phe(4-NO2)]RWR-NH2
SMILES: CC(=O)N[C@@H](CCCNC(=N)N)C(=O)N[C@@H](Cc1ccc(O)cc1)C(=O)N[C@@H](Cc1ccc([N+](=O)[O-])cc1)C(=O)N[C@@H](CCCNC(=N)N)C(=O)N[C@@H](Cc1c[nH]c2ccccc12)C(=O)N[C@@H](CCCNC(=N)N)C(N)=O
notes: also called Ac-Arg-Tyr-Phe(4-NO2)-Arg-Trp-Arg-NH2
B14: VII-87-B (peptide)
peptide: Ac-R[Tyr(3-Cl)]YRWR-NH2
SMILES: CC(=O)N[C@@H](CCCNC(=N)N)C(=O)N[C@@H](Cc1ccc(O)c(Cl)c1)C(=O)N[C@@H](Cc1ccc(O)cc1)C(=O)N[C@@H](CCCNC(=N)N)C(=O)N[C@@H](Cc1c[nH]c2ccccc12)C(=O)N[C@@H](CCCNC(=N)N)C(N)=O
notes: also called Ac-Arg-Tyr(3-Cl)-Tyr-Arg-Trp-Arg-NH2
B15: VII-79-A (peptide)
peptide: Ac-RY[Phe(4-CH2NH2)]RWR-NH2
SMILES: CC(=O)N[C@@H](CCCNC(=N)N)C(=O)N[C@@H](Cc1ccc(O)cc1)C(=O)N[C@@H](Cc1ccc(CN)cc1)C(=O)N[C@@H](CCCNC(=N)N)C(=O)N[C@@H](Cc1c[nH]c2ccccc12)C(=O)N[C@@H](CCCNC(=N)N)C(N)=O
notes: also called Ac-Arg-Tyr-Phe(4-CH2NH2)-Arg-Trp-Arg-NH2
B16: VII-65-F (peptide)
peptide: Ac-[Dap]YYRWR-NH2
SMILES: CC(=O)N[C@@H](CN)C(=O)N[C@@H](Cc1ccc(O)cc1)C(=O)N[C@@H](Cc1ccc(O)cc1)C(=O)N[C@@H](CCCNC(=N)N)C(=O)N[C@@H](Cc1c[nH]c2ccccc12)C(=O)N[C@@H](CCCNC(=N)N)C(N)=O
notes: also called Ac-Dap-Tyr-Tyr-Arg-Trp-Arg-NH2
B17: VII-71-B (peptide)
peptide: Ac-RY[hPhe(2,4-di-NO2)]RWR-NH2
SMILES: CC(=O)N[C@@H](CCCNC(=N)N)C(=O)N[C@@H](Cc1ccc(O)cc1)C(=O)N[C@@H](CCc1ccc([N+](=O)[O-])cc1[N+](=O)[O-])C(=O)N[C@@H](CCCNC(=N)N)C(=O)N[C@@H](Cc1c[nH]c2ccccc12)C(=O)N[C@@H](CCCNC(=N)N)C(N)=O
notes: also called Ac-Arg-Tyr-hPhe(2,4-di-NO2)-Arg-Trp-Arg-NH2
B18: VII-73-A (peptide)
peptide: Ac-RY[Dmt]RWR-NH2
SMILES: CC(=O)N[C@@H](CCCNC(=N)N)C(=O)N[C@@H](Cc1ccc(O)cc1)C(=O)N[C@@H](Cc1c(C)cc(O)cc1C)C(=O)N[C@@H](CCCNC(=N)N)C(=O)N[C@@H](Cc1c[nH]c2ccccc12)C(=O)N[C@@H](CCCNC(=N)N)C(N)=O
notes: also called Ac-Arg-Tyr-Tyr(2,6-di-Me)-Arg-Trp-Arg-NH2
B19: VII-67-A (peptide)
peptide: Ac-[Dab]YYRWR-NH2
SMILES: CC(=O)N[C@@H](CCN)C(=O)N[C@@H](Cc1ccc(O)cc1)C(=O)N[C@@H](Cc1ccc(O)cc1)C(=O)N[C@@H](CCCNC(=N)N)C(=O)N[C@@H](Cc1c[nH]c2ccccc12)C(=O)N[C@@H](CCCNC(=N)N)C(N)=O
notes: also called Ac-Dab-Tyr-Tyr-Arg-Trp-Arg-NH2
B20: VII-77-A (peptide)
peptide: Ac-RY[Phe(4-NHAc)]RWR-NH2
SMILES: CC(=O)Nc1ccc(C[C@H](NC(=O)[C@H](Cc2ccc(O)cc2)NC(=O)[C@H](CCCNC(=N)N)NC(C)=O)C(=O)N[C@@H](CCCNC(=N)N)C(=O)N[C@@H](Cc2c[nH]c3ccccc23)C(=O)N[C@@H](CCCNC(=N)N)C(N)=O)cc1
notes: also called Ac-Arg-Tyr-Phe(4-NHAc)-Arg-Trp-Arg-NH2
B21: VII-75-B (peptide)
peptide: Ac-RY[Phe(4-CH2SO3H)]RWR-NH2
SMILES: CC(=O)N[C@@H](CCCNC(=N)N)C(=O)N[C@@H](Cc1ccc(O)cc1)C(=O)N[C@@H](Cc1ccc(CS(=O)(=O)O)cc1)C(=O)N[C@@H](CCCNC(=N)N)C(=O)N[C@@H](Cc1c[nH]c2ccccc12)C(=O)N[C@@H](CCCNC(=N)N)C(N)=O
notes: also called Ac-Arg-Tyr-Phe(4-CH2SO3H)-Arg-Trp-Arg-NH2

Each binder was assayed against T1, human ORL-1 receptor (opioid receptor like 1) (human, UniProt P41146 1-370) (assay: binding assay at ORL1 (taken as [3H]nociceptin displacement as in Table 1)).
T1 construct: whole, on cells; Assays were run on membranes of CHO cells transfected with human ORL-1; also called opiate receptor like 1; nociceptin receptor
T1 sequence (P41146 whole entry): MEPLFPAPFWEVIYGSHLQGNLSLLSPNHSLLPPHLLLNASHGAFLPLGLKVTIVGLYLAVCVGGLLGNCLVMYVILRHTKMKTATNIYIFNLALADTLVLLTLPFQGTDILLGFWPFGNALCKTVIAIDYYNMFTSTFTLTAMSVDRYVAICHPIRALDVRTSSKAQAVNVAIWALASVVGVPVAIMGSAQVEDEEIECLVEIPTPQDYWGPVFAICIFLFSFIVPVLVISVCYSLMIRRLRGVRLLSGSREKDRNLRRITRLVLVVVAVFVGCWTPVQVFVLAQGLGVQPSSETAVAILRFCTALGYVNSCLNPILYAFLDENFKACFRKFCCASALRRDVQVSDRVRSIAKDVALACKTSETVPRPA

First: B1
Second: B2
The IC50 of the first is 1.8-fold higher: 1780 nM for the first, 1000 nM for the second. The second is the more potent here.

Compared with B3, B4 is 2.7-fold higher in IC50: 182 nM for the first, 495 nM for the second.

First: B5
Second: B6
The IC50 of the first is 25-fold higher: 1890 nM for the first, 76 nM for the second. The second is the more potent here.

Compared with B7, B8 is 5.1-fold lower in IC50: 400 nM for the first, 79 nM for the second.

Going from B9 to B10, the IC50 falls from 710 nM to 311 nM (2.3-fold).

First: B11
Second: B12
The IC50 of the first is 9-fold lower: 113 nM for the first, 1020 nM for the second.

The binders below were run against T1, human ORL-1 receptor (opioid receptor …) (assay: [3H]nociceptin displacement, membranes of CHO cells transfected with human ORL-1; Ki=IC50/(1+L/Kd)).
Procedure: Receptor binding studies were conducted on human ORL1 (opiate receptor like 1) transfected into Chinese hamster ovary (CHO) cells using each of the hexapeptide analog compounds of Table 3. All the compounds were evaluated for binding affinities. […] The data shown in Table 5 represents the average±SEM of at least two experiments conducted in triplicate.
Cells are removed from the plates by scraping with a rubber policeman, and then homogenized in Tris buffer using a Polytron homogenizer. Following this homogenization step, the cellular mixture is centrifuged once and washed by an additional centrifugation at 40,000×g for 15 min. The pellet formed during the centrifugation is re-suspended in 50 mM Tris, pH 7.5. […] Samples of the suspension are then filtered over glass fiber filters using a Wallac cell harvester.
For the data in Table 5, binding was conducted as described above. IC₅₀ values and Hill coefficients were determined using the curve-fitting program Prism. K₁ values were calculated using the equation K₁=IC₅₀/(1+[L]/Kd). […] The data in Table 5 represent the average±SEM of at least two experiments conducted in triplicate.

First: B13
Second: B14
The Ki of the first is 1.5-fold lower: 0.17 nM for the first, 0.26 nM for the second.

First: B15
Second: B16
The Ki of the first is 11-fold lower: 2.54 nM for the first, 28.1 nM for the second.

Going from B17 to B18, the Ki falls from 0.63 nM to 0.04 nM (16-fold).

Going from B19 to B20, the Ki falls from 5.59 nM to 0.88 nM (6.4-fold). The second binds more tightly here.

B21 gave a Ki of 26.7 nM.

Each binder was assayed against T1, human ORL-1 receptor (opioid receptor …) (assay: cell-based or functional assay).

First: B13
Second: B14
The “% Stimulation of [35S]GTPγS binding” value of the first is lower: 43.2% for the first, 72% for the second.

B15 and B16 cannot be ordered by “% Stimulation of [35S]GTPγS binding” value: less than 20% for the first, 13.7% for the second.

Going from B17 to B18, the “% Stimulation of [35S]GTPγS binding” value rises from 33.6% to 52.7%.

B19 and B20 cannot be ordered by “% Stimulation of [35S]GTPγS binding” value: less than 20% for the first, 19% for the second.

B21 was tested, and the “% Stimulation of [35S]GTPγS binding” value was less than 20%.

B13 and B14 are within 1.5-fold of each other in “EC50 (nM) of stimulation of [35S]GTPγS binding” value (shortened to “EC50 (nM)”): 3.2 nM for the first, 3.9 nM for the second.

B17 and B18 are within 1.5-fold of each other in “EC50 (nM)” value: 7.5 nM for the first, 5.2 nM for the second.

B20 was tested, and the “EC50 (nM)” value was 115 nM.
